Data from US20230265179A1 (TWIST BIOSCIENCE, published 2023).
Positions count from the first letter of the chain named.

B1: CD40L-156 (antibody, V domains shown)
VH: EVQLLESGGGLVQPGGSLRLSCAASGFMFSWYDMGWVRQAPGKGLEWVSSIDWHGWVTYYADSVKGRFTISRDNSKNTLYLQMNSLRAEDTAVYYCAKAYYGGFDYWGQGTLVTVSS
VL: DIQMTQSPSSLSASVGDRVTITCRASQPIGPDLLWYQQKPGKAPKLLIYDNTNRPSGVPSRFSGSGSGTDFTLTISSLQPEDFATYYCQQSQAAPLTFGQGTKVEIK
notes: IgG2
B2: CD40L-158 (antibody, V domains shown)
VH: EVQLLESGGGLVQPGGSLRLSCAASGGYNFRDYMHWVRQAPGKGLEWVSSIGRHGGRTYYADSVKGRFTISRDNSKNTLYLQMNSLRAEDTAVYYCAKDLGQGFDYWGQGTLVTVSS
VL: DIQMTQSPSSLSASVGDRVTITCRASQDVSSGVAWYQQKPGKAPKLLIYQMSHLASGVPSRFSGSGSGTDFTLTISSLQPEDFATYYCSSQDTVTRVLGQGTKVEIK
notes: IgG2
B3: CD40L-170 (antibody, V domains shown)
VH: B2 VH with R31K
VL: B2 VL
notes: IgG2
B4: CD40L-159 (antibody, V domains shown)
VH: EVQLLESGGGLVQPGGSLRLSCAASGFDFSDYEMSWVRQAPGKGLEWVSSITSEGGSTYYADSVKGRFTISRNNSKNTLYLQMNSLRAEDTAVYYCAKPDVLFDYWGQGTLVTVSS
VL: DIQMTQSPSSLSASVGDRVTITCRASQDISNYLNWYQQKPGKAPKLLIYGKKNRPSGVPSRFSGSGSGTDFTLTISSLQPEDFATYYCQQGYTRTDIDNTFGQGTKVEIK
notes: IgG2
B5: CD40L-160 (antibody, V domains shown)
VH: B4 VH with N73D
VL: DIQMTQSPSSLSASVGDRVTITCRASQDVSSGVAWYQQKPGKAPKLLIYGKKNRPSGVPSRFSGSGSGTDFTLTISSLQPEDFATYYCQAWDRDTGVFGQGTKVEIK
notes: IgG2
B6: CD40L-161 (antibody, V domains shown)
VH: B4 VH with N73D
VL: DIQMTQSPSSLSASVGDRVTITCRASQDVSSGVAWYQQKPGKAPKLLIYATSTLQSGVPSRFSGSGSGTDFTLTISSLQPEDFATYYCQQSFSVPAFGQGTKVEIK
notes: IgG2
B7: CD40L-166 (antibody, V domains shown)
VH: B4 VH with N73D
VL: DIQMTQSPSSLSASVGDRVTITCRASQSIISYVNWYQQKPGKAPKLLIYGASNLHSGVPSRFSGSGSGTDFTLTISSLQPEDFATYYCQQSYSTPTFGQGTKVEIK
notes: IgG2
B8: CD40L-162 (antibody, V domains shown)
VH: EVQLLESGGGLVQPGGSLRLSCAASGGYNFRDYMHWVRQAPGKGLEWVAEIRNKANNHATKYADSVKGRFTISRDNSKNTLYLQMNSLRAEDTAVYYCAKNLGQGFDYWGQGTLVTVSS
VL: DIQMTQSPSSLSASVGDRVTITCRTSQDISNYLNWYQQKPGKAPKLLIYATSNLASGVPSRFSGSGSGTDFTLTISSLQPEDFATYYCQQSYSSAPMFGQGTKVEIK
notes: IgG2
B9: CD40L-164 (antibody, V domains shown)
VH: B4 VH with N73D
VL: DIQMTQSPSSLSASVGDRVTITCRASSSVSYMHWYQQKPGKAPKLLIYAASDLESGVPSRFSGSGSGTDFTLTISSLQPEDFATYYCSQSTHVPTFGQGTKVEIK
notes: IgG2
B10: CD40L-165 (antibody, V domains shown)
VH: B4 VH with N73D
VL: B8 VL with A50G, T51A, N53T, A55Q, S93D, S94N, A95P, P96L, M97T
notes: IgG2
B11: CD40L-175 (antibody, V domains shown)
VH: B4 VH with N73D, V101K, L102D
VL: DIQMTQSPSSLSASVGDRVTITCRASQTIGDYLNWYQQKPGKAPKLLIYDASNLQSGVPSRFSGSGSGTDFTLTISSLQPEDFATYYCQQSYELPLTFGQGTKVEIK
notes: IgG2
B12: CD40L-180 (antibody, V domains shown)
VH: B4 VH with N73D
VL: B11 VL with T28S, G30L, D31S, D50G, N53S, Q55E, S91T, E93D, L94T
notes: IgG2
B13: CD40L-167 (antibody, V domains shown)
VH: B2 VH with G52S, R53N, H54S, R57S, D99N
VL: DIQMTQSPSSLSASVGDRVTITCRASESVEYHGTSLMHWYQQKPGKAPKLLIYGTSNLESGVPSRFSGSGSGTDFTLTISSLQPEDFATYYCQQVVWRPFTFGQGTKVEIK
notes: IgG2
B14: CD40L-168 (antibody, V domains shown)
VH: B4 VH with N73D
VL: DIQMTQSPSSLSASVGDRVTITCSGDNLGDKYVHWYQQKPGKAPKLLIYGKNIRPSGVPSRFSGSGSGTDFTLTISSLQPEDFATYYCQSGSSSANAVFGQGTKVEIK
notes: IgG2
B15: CD40L-169 (antibody, V domains shown)
VH: B4 VH with N73D
VL: DIQMTQSPSSLSASVGDRVTITCSGDKLGDKYAYWYQQKPGKAPKLLIYFTSTLAAGVPSRFSGSGSGTDFTLTISSLQPEDFATYYCQQSYSSAPTFGQGTKVEIK
notes: IgG2
B16: CD40L-191 (antibody, V domains shown)
VH: B4 VH with N73D
VL: B15 VL with D26N, Y34S, F50D, T53K, L54V, A56S, S93E, S94T, A95P, P96L
notes: IgG2
B17: CD40L-171 (antibody, V domains shown)
VH: B4 VH with N73D, V101Q, L102F
VL: DIQMTQSPSSLSASVGDRVTITCRASSSVSYMHWYQQKPGKAPKLLIYQNDKRPSGVPSRFSGSGSGTDFTLTISSLQPEDFATYYCQQHYSPSHTFGQGTKVEIK
notes: IgG2
B18: CD40L-172 (antibody, V domains shown)
VH: B4 VH with N73D
VL: DIQMTQSPSSLSASVGDRVTITCKASQHVITHVTWYQQKPGKAPKLLIYGTSDLQSGVPSRFSGSGSGTDFTLTISSLQPEDFATYYCQQSNSWPYTFGQGTKVEIK
notes: IgG2
B19: CD40L-173 (antibody, V domains shown)
VH: B2 VH with S49A, S50T, G52S, R53G, H54G, G56I, R57N, A61P
VL: DIQMTQSPSSLSASVGDRVTITCQSSQSVYSNNELSWYQQKPGKAPKLLIYGRNKRPSGVPSRFSGSGSGTDFTLTISSLQPEDFATYYCSQGTHVPPTFGQGTKVEIK
notes: IgG2
B20: CD40L-174 (antibody, V domains shown)
VH: B4 VH with N73D, D100G, V101R
VL: DIQMTQSPSSLSASVGDRVTITCRASESVEYHGTSLMHWYQQKPGKAPKLLIYGRNKRPSGVPSRFSGSGSGTDFTLTISSLQPEDFATYYCQAWDRDTGVFGQGTKVEIK
notes: IgG2
B21: CD40L-177 (antibody, V domains shown)
VH: B4 VH with D28T, S30A, D31S, S35T, N73D
VL: DIQMTQSPSSLSASVGDRVTITCRASQDVSSGVAWYQQKPGKAPKLLIYDASNLQSGVPSRFSGSGSGTDFTLTISSLQPEDFATYYCSQSTRVPPTFGQGTKVEIK
notes: IgG2
B22: CD40L-178 (antibody, V domains shown)
VH: B4 VH with D28T, S30E, E33Q, S35G, N73D, D100G, V101R, L102D
VL: DIQMTQSPSSLSASVGDRVTITCRASQPIVRNLRWYQQKPGKAPKLLIYGASSLESGVPSRFSGSGSGTDFTLTISSLQPEDFATYYCLQNVANPATFGQGTKVEIK
notes: IgG2
B23: CD40L-179 (antibody, V domains shown)
VH: B4 VH with N73D
VL: DIQMTQSPSSLSASVGDRVTITCRASQSILSYLNWYQQKPGKAPKLLIYGTSKLASGVPSRFSGSGSGTDFTLTISSLQPEDFATYYCQSYDNDFYGTVFGQGTKVEIK
notes: IgG2
B24: CD40L-183 (antibody, V domains shown)
VH: B2 VH with G52V, R53S, H54S, R57L, Y59L
VL: DIQMTQSPSSLSASVGDRVTITCTGDKLAEKYVSWYQQKPGKAPKLLIYQNDKRPSGVPSRFSGSGSGTDFTLTISSLQPEDFATYYCQQSYSRPYTFGQGTKVEIK
notes: IgG2
B25: CD40L-185 (antibody, V domains shown)
VH: B4 VH with N73D, V101Q, L102F, F103L
VL: DIQMTQSPSSLSASVGDRVTITCRASQTIERRLNWYQQKPGKAPKLLIYGTTSLESGVPSRFSGSGSGTDFTLTISSLQPEDFATYYCHHWHHNPTHHETNVFGQGTKVEIK
notes: IgG2
B26: CD40L-186 (antibody, V domains shown)
VH: B4 VH with N73D
VL: DIQMTQSPSSLSASVGDRVTITCRASQGVRTSLAWYQQKPGKAPKLLIYENNNRPSGVPSRFSGSGSGTDFTLTISSLQPEDFATYYCSQSTHVPPTFGQGTKVEIK
notes: IgG2

target: T1, CD40L over-expressed on Expi293 cells (UniProt P29965 1-261, limits assumed); assay: flow cytometry, 100 nM antibody, CD40L-Expi293 vs parent Expi293 cells;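 note: ratio is the mean fluorescence intensity on CD40L-overexpressing Expi293 cells divided by the mean fluorescence intensity on parental Expi293 cells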
T1 construct: whole, on cells; also called cytokine over-expressing Expi293 cells
T1 sequence (looked up): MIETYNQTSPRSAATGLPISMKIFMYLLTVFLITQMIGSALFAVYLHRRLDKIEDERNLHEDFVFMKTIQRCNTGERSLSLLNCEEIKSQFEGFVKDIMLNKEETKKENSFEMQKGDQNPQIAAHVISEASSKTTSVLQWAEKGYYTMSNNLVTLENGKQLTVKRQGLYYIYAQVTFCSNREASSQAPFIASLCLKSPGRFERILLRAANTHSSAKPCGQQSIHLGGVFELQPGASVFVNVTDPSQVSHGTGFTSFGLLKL
Method: All incubations and washes were in buffer containing PBS+1% BSA. MFI Ratio is defined by the mean fluorescence intensity (MFI) of the cytokine over-expressing Expi293 cell over the Expi293 parent cell. […] EC50 was calculated in GraphPad Prism.

| Binder | 100 nM FACS (MFI Ratio) |
| --- | --- |
| B1 | 1.3 ratio |
| B2 | 1.5 ratio |
| B3 | 0.6 ratio |
| B4 | 0.3 ratio |
| B5 | 0.3 ratio |
| B6 | 0.9 ratio |
| B7 | 1.1 ratio |
| B8 | 0.3 ratio |
| B9 | 0.4 ratio |
| B10 | 0.5 ratio |
| B11 | 0.4 ratio |
| B12 | 4.3 ratio |
| B13 | 1.4 ratio |
| B14 | 0.2 ratio |
| B15 | 0.4 ratio |
| B16 | 9.7 ratio |
| B17 | 0.4 ratio |
| B18 | 0.5 ratio |
| B19 | 0.4 ratio |
| B20 | 0.4 ratio |
| B21 | 8.9 ratio |
| B22 | 6.4 ratio |
| B23 | 3.1 ratio |
| B24 | 3.6 ratio |
| B25 | 4.5 ratio |
| B26 | 2.7 ratio |
